Laboratory results taken from US20140322218A1 (Amgen, published 2014).

T1: caCDH19(1-43)::FLAG::caCDH19(44-87)::rhCDH19(89-114)::caCDH19(115-770), on 293T cells (rhesus macaque/dog chimera)
T1 construct: also called rh EC1b (dog backbone)
T1 chain: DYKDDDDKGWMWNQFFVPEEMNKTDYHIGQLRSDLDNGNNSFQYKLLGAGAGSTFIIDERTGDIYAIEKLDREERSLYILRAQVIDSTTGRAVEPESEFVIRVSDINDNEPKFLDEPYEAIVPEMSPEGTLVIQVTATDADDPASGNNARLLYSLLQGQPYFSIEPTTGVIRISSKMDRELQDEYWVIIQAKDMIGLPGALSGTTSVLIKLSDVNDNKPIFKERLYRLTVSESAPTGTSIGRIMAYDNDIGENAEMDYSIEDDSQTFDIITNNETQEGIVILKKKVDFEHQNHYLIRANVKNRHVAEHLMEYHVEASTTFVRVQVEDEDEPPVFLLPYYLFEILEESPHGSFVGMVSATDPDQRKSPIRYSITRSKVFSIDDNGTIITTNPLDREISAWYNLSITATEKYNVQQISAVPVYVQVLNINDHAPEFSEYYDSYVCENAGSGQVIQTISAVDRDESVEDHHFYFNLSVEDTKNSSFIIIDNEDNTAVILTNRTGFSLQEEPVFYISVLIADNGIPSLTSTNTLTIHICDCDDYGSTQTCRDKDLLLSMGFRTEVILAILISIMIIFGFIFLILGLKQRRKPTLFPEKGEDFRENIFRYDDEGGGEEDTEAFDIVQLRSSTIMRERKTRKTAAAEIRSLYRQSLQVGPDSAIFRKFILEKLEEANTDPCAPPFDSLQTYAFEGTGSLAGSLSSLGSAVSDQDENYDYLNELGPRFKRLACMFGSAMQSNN

T2: (1-43)::FLAG::muCDH19(44-323)::raCDH19(324-327)::muCDH19(328-770), on 293T cells (mouse/rat chimera)
T2 construct: Entry holds leader (1-43), Flag tag and CDH19 part; leader left out; also called Ra EC3c
T2 chain: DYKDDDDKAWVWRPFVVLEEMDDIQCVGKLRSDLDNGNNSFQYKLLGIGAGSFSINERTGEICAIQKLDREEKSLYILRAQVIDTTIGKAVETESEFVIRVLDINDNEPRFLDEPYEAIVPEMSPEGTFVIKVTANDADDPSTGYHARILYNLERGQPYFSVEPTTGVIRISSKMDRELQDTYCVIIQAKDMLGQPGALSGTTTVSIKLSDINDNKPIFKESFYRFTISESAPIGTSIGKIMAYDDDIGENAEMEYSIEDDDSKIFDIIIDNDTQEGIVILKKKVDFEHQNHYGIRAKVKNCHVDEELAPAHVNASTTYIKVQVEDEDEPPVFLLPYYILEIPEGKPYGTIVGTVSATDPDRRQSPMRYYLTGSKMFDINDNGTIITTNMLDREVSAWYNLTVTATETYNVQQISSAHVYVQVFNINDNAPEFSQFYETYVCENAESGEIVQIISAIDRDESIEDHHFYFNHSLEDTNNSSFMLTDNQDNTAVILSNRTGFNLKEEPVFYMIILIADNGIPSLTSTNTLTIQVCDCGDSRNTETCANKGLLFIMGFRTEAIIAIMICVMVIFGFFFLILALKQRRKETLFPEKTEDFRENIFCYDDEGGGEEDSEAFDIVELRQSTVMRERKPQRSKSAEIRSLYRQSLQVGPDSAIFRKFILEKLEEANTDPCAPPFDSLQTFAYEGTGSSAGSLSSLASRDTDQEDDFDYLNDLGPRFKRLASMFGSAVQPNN

T3: muCDH19(1-43)::FLAG::muCDH19(44-770)::huCDH19(271), on 293T cells (mouse/human chimera)
T3 construct: Entry holds leader (1-43), Flag tag and CDH19 part; leader left out; also called Hu EC3a
T3 chain: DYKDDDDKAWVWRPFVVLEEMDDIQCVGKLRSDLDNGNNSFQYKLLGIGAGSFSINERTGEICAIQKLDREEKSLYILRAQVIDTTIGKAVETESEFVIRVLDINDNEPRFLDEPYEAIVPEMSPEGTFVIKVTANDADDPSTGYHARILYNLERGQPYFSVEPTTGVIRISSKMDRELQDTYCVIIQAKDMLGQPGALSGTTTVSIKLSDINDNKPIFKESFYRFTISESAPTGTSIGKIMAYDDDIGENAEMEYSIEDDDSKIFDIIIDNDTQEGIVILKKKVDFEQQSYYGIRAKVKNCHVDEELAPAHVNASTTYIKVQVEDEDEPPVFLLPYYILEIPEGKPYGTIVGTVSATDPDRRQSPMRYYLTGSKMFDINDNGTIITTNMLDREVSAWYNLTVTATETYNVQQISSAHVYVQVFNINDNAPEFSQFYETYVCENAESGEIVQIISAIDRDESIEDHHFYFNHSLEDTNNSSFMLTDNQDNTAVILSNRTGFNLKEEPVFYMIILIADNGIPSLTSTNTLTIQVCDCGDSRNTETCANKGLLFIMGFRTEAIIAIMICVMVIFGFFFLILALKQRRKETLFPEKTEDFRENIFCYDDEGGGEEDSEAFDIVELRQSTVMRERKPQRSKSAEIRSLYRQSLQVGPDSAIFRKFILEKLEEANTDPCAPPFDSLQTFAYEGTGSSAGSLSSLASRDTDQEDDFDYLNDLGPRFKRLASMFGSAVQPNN


Assays:
[1] = target: T4, Human Cadherin-19 (human, UniProt Q9H159 44-772); assay: FACS, endogenous CDH19 on CHL-1/Colo699
T4 construct: Residues 1-43 are named as the native leader in the construct designations and are left out; also called human CDH19; huCDH19
Method: (§1) FACS binding assays were performed to evaluate the binding of the anti-Cadherin-19 receptor specific antibodies to endogenous Cadherin-19 receptor expressed on the CHL-1 tumor cell lines.
(§2) FACs assays were performed by incubating hybridoma supernatants with 10,000 to 25,000 cells in PBS/2% Fetal bovine serum/2 mM Calcium Chloride at 4° C. for one hour followed by two washes with PBS/2% Fetal bovine serum/2 mM Calcium Chloride. Cells were then treated with florochrome-labeled secondary antibodies at 4° C. followed by one wash. The cells were resuspended in 50 μl of PBS/2% FBS and antibody binding was analyzed using a FACSCalibur™ instrument.

[2] = target: T1, caCDH19(1-43)::FLAG::caCDH19(44-87)::rhC …; assay: FACS, transfected 293T
Method: (§3) The following binding assay was completed in presence of 2 mM CaCl2. […] Cells were then washed one time and the amount of cell associated Alexa647-labelled Ab was quantitated by flow cytometry. The experiments included mock transfected controls.

[3] = target: T5, rhCDH19(1-43)::FLAG::rhCDH19(44-141)::caCDH19(141-770), on 293T cells (rhesus macaque/dog chimera); assay: FACS, transfected 293T
T5 construct: Entry holds leader (1-43), Flag tag and CDH19 part; leader left out; also called rh EC1 (dog backbone)
Method: as §3

[4] = target: T4, Human Cadherin-19; assay: FACS, endogenous and recombinant human CDH19
Method: as §1, §2

[5] = target: T2, (1-43)::FLAG::muCDH19(44-323)::raCDH19(3 …); assay: FACS, transfected 293T
[6] = target: T3, muCDH19(1-43)::FLAG::muCDH19(44-770)::hu …; assay: FACS, transfected 293T

| Binder | binding result [1] | binding result [2] | binding result [3] | binding result [4] | binding result [5] | binding result [6] |
| --- | --- | --- | --- | --- | --- | --- |
| hu anti-<huCDH19> 26D1.1 VH::huIgG1z / 26D1.1 VL::huLLC-C2 (Ab ID 13882) (antibody, V domains shown) VH: QVQLVQSGAEVKKPGASVKVSCKASRYTFTSYYMSWVRQAPGQGLEWMGIIHPSGGDTTYAQKFQGRVTMTGDTSTSTVYMELSSLRSEDTAVYYCARGGIKLWLHFDYWGQGTLVTVSS VL: not shown | binds | binds | binds |  |  |  |
| hu anti-<huCDH19> 4B10 VH::huIgG1z / 4B10 VL::huKLC (Ab ID 13590) (antibody, V domains shown) VH: QVQLVESGGGVVQPGRSLRLSCAASGFTFSSYDMHWVRQAPGKGLEWVAVISYDGTNEYYADSVKGRFTISRDTSKNTLYLQMNSLRAEDTAVYYCARERYFDWSFDYWGQGTLVSVSS VL: EIVLTQSPGTLSLSPGERATLSCRASQSVSNTYLAWYHQRPGQAPRLLIYGASSRATGIPDRFSGSGSGTDFALTISSLEPEDFAVYYCQQYSNSWTFGQGTKVEIKR |  |  |  | binds | binds | no binding (tested: 5 ug/ml) |
| anti-CDH19 antibody 2G6 (Ab ID 13588) (antibody, human IgG1, lambda, V domains shown) VH: QVQLVESGGGVVQPGRSLRLSCAASGFTFSSYGMHWVRQAPGKGLEWVAFIWYDGSNKYYADSVKDRFTISRDNSKNTLYLQMKSLRAEDTAVYYCARRAGIIGTIGYYYGMDVWGQGTTVTVSS VL: SYELTQPPSVSVSPGQTASITCSGDRLGEKYTCWYQQRPGQSPLLVIYQDTKRPSGIPERFSGSNSGNTATLTISGTQAMDEADYYCQAWDSSTVVFGGGTKLTVLG |  |  |  | binds | binds | binds |
| hu anti-<huCDH19> 4A9 VH::huIgG1z / 4A9 VL::huLLC-C1 (Ab ID 13589) (antibody, V domains shown, Recombinant fully human IgG1) VH: QVQLQESGPGLVKPSETLSLTCTVSGGSISGYYWSWIRQPPGKGLEWFAYFSYSGSTNYNPSLKSRVTLSVDTSKNQFSLKLSSVTAADTAVYYCARNWAFHFDFWGQGTLVTVSS VL: QSVLTQPPSVSGAPGQRVTISCTGSSSNIGTGYAVHWYQQFPGTAPKLLIYGNNNRPSGVPDRFSGSKSGTSASLAITGLQAEDEADYYCQSYDSRLSGWVFGGGTKLTVLG | binds | no binding (tested: 5 ug/ml) | binds |  |  |  |
